This note sets out measurements from US20060263349A1.

This test has as its target human CD20 on WIL2-S B lymphoblast cells (human) (UniProt P11836). The test is described as follows: cell-based or functional assay.
Sequence of UniProt P11836 (P11836 whole entry): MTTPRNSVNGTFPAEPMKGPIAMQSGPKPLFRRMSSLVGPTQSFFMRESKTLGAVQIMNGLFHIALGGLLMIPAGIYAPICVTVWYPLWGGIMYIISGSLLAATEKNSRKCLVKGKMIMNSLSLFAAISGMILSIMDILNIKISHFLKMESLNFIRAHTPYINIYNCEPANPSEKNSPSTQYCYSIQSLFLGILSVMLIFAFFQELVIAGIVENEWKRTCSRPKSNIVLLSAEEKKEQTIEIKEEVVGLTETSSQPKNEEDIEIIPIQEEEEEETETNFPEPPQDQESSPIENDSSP

Substance Rituximab (antibody) showed a CDC activity above background cell lysis at 0.4 µg/mL Rituximab of 25 to 30%; a Rituximab concentration at maximal cell lysis (CDC, WIL2-S cells, … GLO) of 5 µg/mL; a percentage of live cells remaining at 1 µg/mL Rituximab (control) of 40%.
